Patent US20230001007A1, “Glycan-Interacting Compounds and Methods of Use” (Seagen Inc., priority 2017, published 2023)

Tests used:
RKO = experiment: STn expression on CRC line by flow cytometry using anti-STn antibodies; type: cell-based; conditions: detected using hSIA101
Method: (§1) Mouse antibodies were characterized for in vitro and in vivo efficacy in breast, colon and ovarian cancer models. The antibodies were used to identify CRC cell lines that express STn on the surface. Five CRC lines were incubated in vitro and grown to confluency. % STn expression was determined by flow cytometry using anti-STn antibodies. Approximately 30-70% of cultured SW403, COL0205 and LS174T cells naturally expressed STn on the surface (as detected using mSIA103), while HT29 and RKO had very little to no detectable STn (as detected using hSIA101) on their cell surface (see Table 6).

HT29 = experiment: as above; type: cell-based; conditions: detected using hSIA101
Method: as §1

[1] = target: bovine submaxillary mucin (BSM); experiment: BSM ELISA, periodate-sensitive STn binding; conditions: periodate-sensitive STn binding curve, 0 to 100 nM
Method: For BSM ELISA analysis, antibodies were screened over a concentration range of 0 to 100 nM on bovine submaxillary mucin (BSM) coated wells. A subset of wells were treated with mild periodate solution before antibody introduction to remove the side chain on terminal sialic acid residues (destroying the STn antigen). Optical densities of periodate and non-periodate-treated wells were determined and log transformed then fit to a nonlinear regression model to obtain a dose response curve. Optical density values obtained from periodate-treated wells were subtracted from non-periodate treated wells to obtain a periodate-sensitive STn binding curve and corresponding EC50 values.

[2] = tested on: MDA-MB-231 cells transfected for enhanced expression of STn (STn positive cells); experiment: ADC cytotoxicity assay ([…]-GLO); type: cell-based; conditions: MMAE-conjugated ADC versions; 72 hours; kill of STn positive cells
Method: MMAE-conjugated ADC versions of hSIA101, hSIA102, and hSIA103 were assessed in an ADC cytotoxicity assay using MDA-MB-231 cells (parental or transfected for enhanced expression of STn). Parental cells were grown in Eagle's Minimum Essential Medium (EMEM) supplemented with 10% FBS, lx Pen/Strep and 45 μg/mL gentamycin. STn positive cells were grown in the same media except with the addition of 1 mg/mL G418 for antibiotic selection. Cells were seeded separately (4,000 cells/well for parental cells or 2,000/well for STn positive cells) in 96-well plates using proper media described above. Cells were grown overnight. After 16-20 hours, cells were treated with varying concentrations of test antibodies in triplicate (50 nM to 0.012 nM) for 72 hours. Then, cells were analyzed using an ADC […]-GLO® luminescent cell viability assay kit (Promega, Madison, Wis.) to determine the amount of ATP present, an indicator of metabolically active cells. The assay uses a single reagent that is added directly to the cultured cells in serum-supplemented medium. The reagent lyses the cells and generates a luminescent signal proportional to the amount of ATP present. Luminescent signals were analyzed and used to calculate the half-maximal inhibitory concentration (IC50) values for each antibody used based on the concentration required to kill STn positive cells at half-maximal levels (see Table 9).

[3] = tested on: cynomolgus monkey tissues; experiment: Tissue cross-reactivity study, frozen tissue sections; type: binding; parameters: key: 1+=weak staining; 2+=moderate staining; 3+=strong staining; 4+=intense staining; Neg=negative; freq=frequent (staining in >75%-100% of cells); occ=occasional (staining in >25%-50% of cells); rare refers to staining in 1-5% of cells; conditions: Cyno, 1-3 μg/ml
Method: Tissue cross-reactivity studies were conducted to assess the binding profile (both on- and potential off-target binding) to human and relevant species used in nonclinical safety testing. Humanized anti-STn antibodies were examined for binding to a panel of normal human, rat, mouse, and cynomolgus monkey tissues. The study was conducted on […] normal frozen tissue sections at 1-3 μg/ml: heart, brain, kidney, stomach, lung, small intestines, colon, liver, pancreas, spleen and bone marrow. The positive control was a human pancreatic neoplasm that contained STn positive cancer cells and the negative control was normal stromal cells contained within the same specimen. Staining across all normal tissues was restricted to the cytoplasm. Additional analyses were conducted without primary antibody or using isotype control IgG as negative controls.
Antibodies were also found to cross react with similar types of tissue from Cynomolgus monkey (see Table 17) and rat (not shown).

B1: hSIA101 (antibody, V domains shown)
VH: EVQLVQSGAEVKKPGASVKVSCKASGYTFTDHAIHWVRQAPGQGLEWMGYFSPGNDDIKYNEKFRGRVTMTADKSSSTAYMELRSLRSDDTAVYFCKRSLSTPYWGQGTLVTVSS
VL: DIVMTQSPDSLAVSLGERATINCKSSQSLLNRGNHKNYLTWYQQKPGQPPKLLIYWASTRESGVPDRFSGSGSGTDFTLTISSLQAEDVAVYYCQNDYTYPYTFGQGTKVEIK
- % STn expression (RKO): Low to non-detectable
- % STn expression (HT29): Low to non-detectable
- EC50 [1]: 4.2 nM
- IC50 [2]: 5.2 nM
- tissue staining ([3]; Colon Epithelial Cells): Neg
- tissue staining ([3]; Colon Vessel): 4+ freq (cytoplasm)
- tissue staining ([3]; Heart Vessel): Neg
- tissue staining ([3]; Lung Epithelium): 2-3+ freq (cytoplasm)
- tissue staining ([3]; Pancreas Vessel): 2-3+ freq (cytoplasm)
- tissue staining ([3]; Small Intestine Epithelial Cells): 3-4+ freq (cytoplasm)
- tissue staining ([3]; Spleen Vessel): Neg
- tissue staining ([3]; Stomach Epithelial Cells): 2-3+ occ (cytoplasm)
- tissue staining ([3]; Stomach Vessel): 2+ occ (cytoplasm)
